T1: FcγRIIb extracellular domain with C-terminal His tag (human, UniProt P31994 43-217)
T1 construct: extracellular domain; also called FcgRIIb; 2b; not shown: His tag at the C terminus
T1 sequence (looked up): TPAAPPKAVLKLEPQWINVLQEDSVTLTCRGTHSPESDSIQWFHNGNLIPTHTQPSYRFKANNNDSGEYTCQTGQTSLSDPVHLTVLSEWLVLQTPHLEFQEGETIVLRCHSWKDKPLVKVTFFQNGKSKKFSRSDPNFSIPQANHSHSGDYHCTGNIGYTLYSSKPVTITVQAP

B1: GpH7-A5/GpH7-B3 variant K326_03V/GpL16-k0 (antibody, human IgG1, kappa)
heavy 1: not shown
heavy 2: not shown
light: DIVMTQSPLSLPVTPGEPASISCQASESLVHSNRNTYLHWYLQKPGQSPQLLIYKVSNRFSGVPDRFSGSGSGTDFTLKISRVEAEDVGVYYCSQNTHVPPTFGQGTKVEIERTVAAPSVFIFPPSDEQLKSGTASVVCLLNNFYPREAKVQWKVDNALQSGNSQESVTEQDSKDSTYSLSSTLTLSKADYEKHKVYACEVTHQGLSSPVTKSFNRGEC
notes: Heterodimerized IgG1 antibody; alteration in the GpH7-B3 chain only; also called He Ab
B2: GpH7-A5/GpH7-B3 variant N325_10E/GpL16-k0 (antibody, human IgG1, kappa)
heavy 1: not shown
heavy 2: not shown
light: B1 light
notes: as for B1
B3: GpH7-A5/GpH7-B3 variant K326_10E/GpL16-k0 (antibody, human IgG1, kappa)
heavy 1: not shown
heavy 2: not shown
light: B1 light
notes: as for B1
B4: GpH7-A5/GpH7-B3 variant L328_01G/GpL16-k0 (antibody, human IgG1, kappa)
heavy 1: not shown
heavy 2: not shown
light: B1 light
notes: as for B1
B5: GpH7-A5/GpH7-B3 variant N325_03V/GpL16-k0 (antibody, human IgG1, kappa)
heavy 1: not shown
heavy 2: not shown
light: B1 light
notes: as for B1
B6: GpH7-A5/GpH7-B3 variant K326_08L/GpL16-k0 (antibody, human IgG1, kappa)
heavy 1: not shown
heavy 2: not shown
light: B1 light
notes: as for B1
B7: GpH7-A5/GpH7-B3 variant K326_15Y/GpL16-k0 (antibody, human IgG1, kappa)
heavy 1: not shown
heavy 2: not shown
light: B1 light
notes: as for B1
B8: GpH7-A5/GpH7-B3 variant L328_04F/GpL16-k0 (antibody, human IgG1, kappa)
heavy 1: not shown
heavy 2: not shown
light: B1 light
notes: as for B1
B9: GpH7-A5/GpH7-B3 variant L328_05P/GpL16-k0 (antibody, human IgG1, kappa)
heavy 1: not shown
heavy 2: not shown
light: B1 light
notes: as for B1
B10: GpH7-A5/GpH7-B3 variant N325_06M/GpL16-k0 (antibody, human IgG1, kappa)
heavy 1: not shown
heavy 2: not shown
light: B1 light
notes: as for B1
B11: GpH7-A5/GpH7-B3 variant K326_20W/GpL16-k0 (antibody, human IgG1, kappa)
heavy 1: not shown
heavy 2: not shown
light: B1 light
notes: as for B1
B12: GpH7-A5/GpH7-B3 variant N325_14T/GpL16-k0 (antibody, human IgG1, kappa)
heavy 1: not shown
heavy 2: not shown
light: B1 light
notes: as for B1
B13: GpH7-A5/GpH7-B3 variant N325_11K/GpL16-k0 (antibody, human IgG1, kappa)
heavy 1: not shown
heavy 2: not shown
light: B1 light
notes: as for B1
B14: GpH7-A5/GpH7-B3 variant N325_04F/GpL16-k0 (antibody, human IgG1, kappa)
heavy 1: not shown
heavy 2: not shown
light: B1 light
notes: as for B1
B15: GpH7-A5/GpH7-B3 variant N325_19Q/GpL16-k0 (antibody, human IgG1, kappa)
heavy 1: not shown
heavy 2: not shown
light: B1 light
notes: as for B1
B16: GpH7-A5/GpH7-B3 variant K326_04F/GpL16-k0 (antibody, human IgG1, kappa)
heavy 1: not shown
heavy 2: not shown
light: B1 light
notes: as for B1
B17: GpH7-A5/GpH7-B3 variant K326_07I/GpL16-k0 (antibody, human IgG1, kappa)
heavy 1: not shown
heavy 2: not shown
light: B1 light
notes: as for B1
B18: GpH7-A5/GpH7-B3 variant K326_19Q/GpL16-k0 (antibody, human IgG1, kappa)
heavy 1: not shown
heavy 2: not shown
light: B1 light
notes: as for B1
B19: GpH7-A5/GpH7-B3 variant N325_07I/GpL16-k0 (antibody, human IgG1, kappa)
heavy 1: not shown
heavy 2: not shown
light: B1 light
notes: as for B1
B20: GpH7-A5/GpH7-B3 variant P271_14T/GpL16-k0 (antibody, human IgG1, kappa)
heavy 1: not shown
heavy 2: not shown
light: B1 light
notes: as for B1
B21: GpH7-A5/GpH7-B3 variant L328_03V/GpL16-k0 (antibody, human IgG1, kappa)
heavy 1: not shown
heavy 2: not shown
light: B1 light
notes: as for B1
B22: GpH7-A5/GpH7-B3 variant N325_09D/GpL16-k0 (antibody, human IgG1, kappa)
heavy 1: not shown
heavy 2: not shown
light: B1 light
notes: as for B1
B23: GpH7-A5/GpH7-B3 variant K326_09D/GpL16-k0 (antibody, human IgG1, kappa)
heavy 1: not shown
heavy 2: not shown
light: B1 light
notes: as for B1
B24: GpH7-A5/GpH7-B3 variant N325_20W/GpL16-k0 (antibody, human IgG1, kappa)
heavy 1: not shown
heavy 2: not shown
light: B1 light
notes: as for B1
B25: GpH7-A5/GpH7-B3 variant P271_09D/GpL16-k0 (antibody, human IgG1, kappa)
heavy 1: not shown
heavy 2: not shown
light: B1 light
notes: as for B1
B26: GpH7-A5/GpH7-B3 variant N325_15Y/GpL16-k0 (antibody, human IgG1, kappa)
heavy 1: not shown
heavy 2: not shown
light: B1 light
notes: as for B1
B27: GpH7-A5/GpH7-B3 variant N325_05P/GpL16-k0 (antibody, human IgG1, kappa)
heavy 1: not shown
heavy 2: not shown
light: B1 light
notes: as for B1
B28: GpH7-A5/GpH7-B3 variant N325_02A/GpL16-k0 (antibody, human IgG1, kappa)
heavy 1: not shown
heavy 2: not shown
light: B1 light
notes: as for B1
B29: GpH7-A5/GpH7-B3 variant N325_13S/GpL16-k0 (antibody, human IgG1, kappa)
heavy 1: not shown
heavy 2: not shown
light: B1 light
notes: as for B1
B30: GpH7-A5/GpH7-B3 variant N325_08L/GpL16-k0 (antibody, human IgG1, kappa)
heavy 1: not shown
heavy 2: not shown
light: B1 light
notes: as for B1
B31: GpH7-A5/GpH7-B3 variant L328_02A/GpL16-k0 (antibody, human IgG1, kappa)
heavy 1: not shown
heavy 2: not shown
light: B1 light
notes: as for B1
B32: GpH7-A5/GpH7-B3 variant K326_06M/GpL16-k0 (antibody, human IgG1, kappa)
heavy 1: not shown
heavy 2: not shown
light: B1 light
notes: as for B1

Legend:
[1] = target: T1, FcγRIIb extracellular domain with …; assay: SPR (Biacore), FcγR as analyte over captured antibody; GpH7-A5/GpH7-B3/GpL16-k0 = 100
Description: (§1) The heterodimerized antibodies He Abs in which one of the H chains was introduced with an alteration were assayed for their binding activities to each activating FcγR and inhibitory FcγR according to the method described in Example 4. […] The activating FcγRs in FIGS. 26, 27, 28, and 29 are FcγRIa, FcγRIIa (R), FcγRIIa (H), and FcγRIIIa, respectively.
(§2) Analysis of interaction between objective antibody and the FcγR was carried out using Biacore T100 (GE Healthcare). HBS-EP+ (GE Healthcare) was used as the running buffer, and the measurement temperature was set to 25° C. Chips produced by immobilizing the antigen peptide by the amine coupling method to a Series S Sencor Chip CM5 (GE Healthcare), or alternatively, chips produced by allowing preliminarily biotinylated antigen peptides to interact with and immobilize onto a Series S Sensor Chip SA (certified) (GE Healthcare) were used. Antibodies of interest were captured onto an antigen peptide-immobilized chip, and allowed to interact to each FcγR diluted with running buffer. To regenerate and repeatedly use the chip, the antibodies captured on the chip were washed off by reacting 10 mM glycine-HCl, pH 1.5.

[2] = target: T2, FcγRIIIa extracellular domain with C-terminal His tag (human, UniProt P08637 17-208); assay: as above
T2 construct: extracellular domain; also called FcgRIIIa; 3a; not shown: His tag at the C terminus
Description: as §1, §2

[3] = target: T2, FcγRIIIa extracellular domain with …; assay: SPR (Biacore); He/Con_3a divided by He/Con_2b (FcγRIIb)

T2 sequence (P08637 17-208): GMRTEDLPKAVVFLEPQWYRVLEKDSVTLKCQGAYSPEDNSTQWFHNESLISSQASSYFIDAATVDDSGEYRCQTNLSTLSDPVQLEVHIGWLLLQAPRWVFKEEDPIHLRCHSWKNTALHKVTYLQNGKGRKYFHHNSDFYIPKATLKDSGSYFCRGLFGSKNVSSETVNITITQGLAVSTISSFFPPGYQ

Binder | He/Con_2b [1] | He/Con_3a [2] | He_3a/2b (IIIa/IIb) [3]
B1 | 175 % of control | 122 % of control | 0.7 ratio
B2 | 95.9 % of control | 38.2 % of control | 0.4 ratio
B3 | 200 % of control | 124 % of control | 0.62 ratio
B4 | 80.2 % of control | 44.9 % of control | 0.56 ratio
B5 | 111 % of control | 30.3 % of control | 0.27 ratio
B6 | 177 % of control | 114 % of control | 0.65 ratio
B7 | 159 % of control | 112 % of control | 0.7 ratio
B8 | 219 % of control | 79.3 % of control | 0.36 ratio
B9 | 65.1 % of control | 40.5 % of control | 0.62 ratio
B10 | 217 % of control | 31.4 % of control | 0.14 ratio
B11 | 148 % of control | 84.8 % of control | 0.57 ratio
B12 | 91.6 % of control | 39.4 % of control | 0.43 ratio
B13 | 10.4 % of control | 5.2 % of control | 0.5 ratio
B14 | 143 % of control | 20.7 % of control | 0.14 ratio
B15 | 69.1 % of control | 31.6 % of control | 0.46 ratio
B16 | 155 % of control | 103 % of control | 0.66 ratio

Binder | He/Con_2b [1] | He/Con_3a [2] | He_3a/2b (IIIa/IIb) [3]
B17 | 199 % of control | 139 % of control | 0.7 ratio
B18 | 139 % of control | 106 % of control | 0.76 ratio
B19 | 171 % of control | 28.7 % of control | 0.17 ratio
B20 | 95.4 % of control | 56.4 % of control | 0.59 ratio
B21 | 126 % of control | 78.7 % of control | 0.63 ratio
B22 | 124 % of control | 48 % of control | 0.39 ratio
B23 | 193 % of control | 134 % of control | 0.69 ratio
B24 | 169 % of control | 32.8 % of control | 0.19 ratio
B25 | 120 % of control | 93.1 % of control | 0.77 ratio
B26 | 99.5 % of control | 29.5 % of control | 0.3 ratio
B27 | 26 % of control | 10.2 % of control | 0.39 ratio
B28 | 64.4 % of control | 30.5 % of control | 0.47 ratio
B29 | 177 % of control | 65.1 % of control | 0.37 ratio
B30 | 197 % of control | 33.3 % of control | 0.17 ratio
B31 | 144 % of control | 79.1 % of control | 0.55 ratio
B32 | 165 % of control | 115 % of control | 0.7 ratio

— US20150344570A1 (published 2015)
